Here are results for three molecules from patent US20250109212A1 (BIOSION, published 2025).

Positions count from the first letter of the chain named.

The target of assay [1] is T1, human CD47-his protein (Cat #: CD7-H5227, Acro biosystems) (human, UniProt Q08722 19-139).
T1 construct: Bought protein
The assay can be described thus: SPR (Biacore T200), sample on Protein A chip, antigen-his analyte, 1:1 fit. The source says:
(§1) The purified recombinant fusion proteins were characterized for their binding affinity and binding kinetics by Biacore T200 system (GE healthcare, Pittsburgh, PA, USA). The anti-CD40 antibody HuCD40-C1H1-V2 (having the heavy chain and the light chain of SEQ ID NOs: 19 and 20), Selicrelumab (an agonistic anti-CD40 antibody, Roche Inc., prepared in-house with heavy and light chains of SEQ ID NOs: 27 and 28), and SIRPα-Fc fusion proteins, including SIRPαV2D1M1-Fc (IgG2) (SEQ ID NO: 21, X1=I, X2=R, X3=T, X4=K, X5=F), SIRPαV2D1M2-Fc (IgG2) (SEQ ID NO: 21, X1=I, X2=R, X3=T, X4=R, X5=V), SIRPα-isoform2-Fc (SEQ ID NO: 25) were used as positive controls.
(§2) A Protein A chip (Cat #: 29-1275-56, GE healthcare) was used for affinity determination. The recombinant fusion proteins of the disclosure and the positive controls each at the concentration of 2 μg/ml were respectively flowed onto the chip at a flow rate of 10 μl/min. Then, serially diluted recombinant human CD40-his proteins (Cat #: CD0-H5228, Acro biosystems), human CD47-his proteins (Cat #: CD7-H5227, Acro biosystems), cynomolgus CD40-his proteins (Biosion in house made, SEQ ID NO: 29) or cynomolgus CD47-his proteins (Cat #: CD7-C52H1, Acro biosystems), 2-fold dilution in HBS-EP⁺ buffer (provided by Biacore) with a starting concentration of 200 nM, were flowed onto the chip at a flow rate of 30 μl/min. The association kinetics was followed for 2 minutes and the dissociation kinetics was followed for 10 minutes. The association and dissociation curves were fit to a 1:1 Langmuir binding model using the Biacore evaluation software.

For assay [2], the target named is T2, recombinant human CD40-his protein (Cat #: CD0-H5228, Acro biosystems) (human, UniProt P25942 21-193).
T2 construct: Bought protein
The assay is described as above.
Source text: as §1, §2

The target in assay [3] is T3, cynomolgus CD47-his protein (Cat #: CD7-C52H1, Acro biosystems) (cynomolgus, UniProt A0A2K5X523 19-139).
T3 construct: Bought protein; also called Cyno CD47-his
The description is as above.
Source text: as §1, §2

Assay [4] concerns the target T4, cynomolgus CD40-his protein (Biosion in house made) (cynomolgus, UniProt P25942 21-191 (human entry), limits assumed).
T4 construct: also called Cyno CD40-his
T4 chain: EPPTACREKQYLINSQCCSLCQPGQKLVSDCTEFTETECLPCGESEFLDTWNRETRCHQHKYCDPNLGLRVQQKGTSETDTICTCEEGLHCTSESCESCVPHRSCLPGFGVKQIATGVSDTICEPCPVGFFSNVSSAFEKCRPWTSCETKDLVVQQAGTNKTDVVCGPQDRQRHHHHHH
Described as above.
Source text: as §1, §2

Assay [5] deals with human CD40-Fc protein (Cat #: CD0-H5253, ACRO Biosystems) (human, UniProt P25942 21-193). The assay is described as follows: dual-binding ELISA: human CD40-Fc coated, binder titrated, detected with human CD47-his and anti-His-HRP, OD450. How it is done:
The binding activity of the recombinant fusion proteins to human CD40 and CD47 was also tested by dual-binding ELISA assay. Briefly, 100 μl/well human CD40-Fc proteins (Cat #: CD0-H5253, ACRO Biosystems) were coated on 96-well plates at 0.2 μg/mL in PBS and incubated overnight at 2-8° C. The next day, the plates were washed 3 times using wash buffer (PBS+0.05% v/v Tween-20, PBST), and then blocked with block buffer (PBS+1% w/v BSA) for 3 hours at 37° C. The plates were then washed 3 times using the wash buffer.
Serially diluted recombinant fusion proteins of the disclosure or controls (starting at 100 nM with a 6-fold serial dilution) in block buffer were added to the CD40-Fc bound plates, 100 μL per well, and incubated at 37° C. for 1 hour. The plates were washed 3 times using wash buffer, and then added and incubated for 1 hour at 37° C. with 100 μl/well 3 μg/mL human CD47-his protein (Cat #: CD7-H5227, ACRO Biosystems). The plates were washed again using wash buffer, added with 100 μl/well Anti-His tag Antibody (HRP) (1:2000 dilution in block buffer, Cat #: 105327-MM02T-H, Sino Biological) and incubated for 1 hour at 37° C. The plates were washed again using wash buffer. […] The absorbance was read using a microplate reader set to 450 nm, then the OD (450) values were plotted against the recombinant fusion protein or controls concentration. Data was analyzed using Graphpad Prism and EC₅₀ values were reported.
(An ELISA detects its analyte on a solid surface through an enzyme-linked reagent.)

Assay [6] has as its target T5, biotin-labeled human CD47-Fc (Biosion in house made) (human, biotin-labeled (sites not given)).
T5 construct: also called Human CD47-Fc protein
The assay can be described thus: competitive ELISA: binder premixed with biotin-labeled human CD47-Fc, blocked partner coated human CD172a-Fc, OD(450-630). How it is done:
The ability of the recombinant fusion proteins of the disclosure to block CD47-CD172a binding was measured in a competitive ELISA assay. Briefly, 100 μl/well human CD172a-Fc proteins (prepared in-house with amino acid sequence of SEQ ID NO: 24) were coated on 96-well micro plates at 2 μg/mL in coating buffer (carbonate/bicarbonate buffer) and incubated overnight at 4° C. The next day, the plates were washed once with wash buffer (PBS+0.05% v/v Tween-20, PBST), and then blocked with 5% w/v non-fatty milk in PBST for 2 hours at 37° C. The plates were then washed 4 times using wash buffer.
Serially diluted recombinant fusion proteins of the disclosure or controls (starting at 100 nM with a 5-fold serial dilution) were mixed with 20 ng/ml biotin-labeled human CD47-Fc (Biosion in house made, SEQ ID NO: 23) in PBST with 2.5% w/v non-fatty milk. The mixtures were incubated at 37° C. for 40 minutes, and respectively added to the CD172a-Fc bound plates, 100 μl per well. The plates were incubated at 37° C. for 40 minutes, washed 4 times using wash buffer, added with 100 μl/well streptavidin conjugated HRP (1:10000 dilution in PBST buffer, Cat #: 016-030-084, Jackson ImmunoResearch), incubated for 40 minutes at 37° C., and washed again using wash buffer. […] The plates were read on a microplate reader using the dual wavelength mode with 450 nm for TMB and 630 nm as the reference wavelength, and the OD (450-630) values were plotted against the recombinant fusion protein or controls concentration. Data was analyzed using Graphpad Prism and IC₅₀ values were reported. Wild-type SIRPαV2D1-Fc (IgG2) (SEQ ID NO: 21, X1=V, X2=K, X3=S, X4=K, X5=F) was used as a positive control.

Assay [7] has as its target human CD40-Fc protein (prepared in-house) (human). The assay can be described thus: competitive ELISA: human CD40-Fc coated, blocked ligand biotin-labeled human CD40L-his, OD(450-630). The procedure: The ability of the recombinant fusion proteins of the disclosure to block CD40-CD40L binding was measured in a competitive ELISA assay. Briefly, 100 μl/well human CD40-Fc proteins (prepared in-house with amino acid sequence of SEQ ID NO: 22) were coated on 96-well micro plates at 2 μg/mL in coating buffer (carbonate/bicarbonate buffer) and incubated overnight at 4° C. The next day, the plates were washed once with wash buffer (PBS+0.05% v/v Tween-20, PBST), and then blocked with 5% w/v non-fatty milk in PBST for 2 hours at 37° C. The plates were then washed 4 times using the wash buffer.
Serially diluted recombinant fusion proteins of the disclosure or controls (starting at 10 µg/mL with a 5-fold serial dilution) in PBST with 2.5% w/v non-fatty milk were added to the CD40-Fc bound plates, 100 μl per well, and incubated at 37° C. for 40 minutes. The plates were washed 4 times using wash buffer, and then added and incubated for 40 minutes at 37° C. with 100 μl/well 95 ng/mL biotin-labeled human CD40L-his protein (Cat #: 10239-H08E, Sino biological). The plates were washed again using wash buffer, added with 100 μl/well streptavidin conjugated HRP (1:10000 dilution in PBST buffer, Cat #: 016-030-084, Jackson ImmunoResearch) and incubated for 40 minutes at 37° C. The plates were washed again using wash buffer. […] The absorbance was read on a microplate reader using the dual wavelength mode with 450 nm for TMB and 630 nm as the reference wavelength, then the OD (450-630) values were plotted against the recombinant fusion protein or controls concentration. Data was analyzed using Graphpad Prism and IC₅₀ values were reported.

For assay [8], the target named is T6, full length human CD40 (uniprot #P25942-1) on 293T-CD40 cells (human, UniProt P25942 21-277).
T6 construct: whole, on cells
The assay is described as follows: FACS on 293T-CD40 cells, detection with goat anti-human IgG (Fab)-PE, MFI. The procedure:
Following an incubation of 40 minutes at 4° C. in dark, cells were washed three times and resuspended in FACS buffer. Fluorescence was measured using a Becton Dickinson FACS Canto II-HTS equipment and plotted against the recombinant fusion protein or controls concentration. Data was analyzed using Graphpad Prism and EC₅₀ values were reported.

Usually Kd stands for a measure of binding affinity in units of concentration. A word on the koff: it is the rate constant with which the complex falls apart. By kon is commonly meant the rate constant with which the complex forms. By EC50 is commonly meant the concentration needed to bring the measured effect to its halfway point. A high value points to lower potency in that assay. The IC50 is the midpoint of a concentration-inhibition curve. Higher therefore signals lower potency.

B1: BSI038×S-004 (bispecific antibody, human IgG2, kappa)
heavy: EEELQVIQPDKSVSVAAGESAILHCTITSLIPVGPIQWFRGAGPARELIYNQREGHFPRVTTVSETTKRENMDFSISISNITPADAGTYYCVKFRKGSPDTEFKSGAGTELSVRAKPSAPVVSGPAARATPGGGGSGGGGSEVQLVESGGGLVKPGGSLRLSCAASGFTFSNYGISWVRQAPGKGLEWVSSISSGGDNTYYPDNVKGRFTISRDNAKNSLYLQMNSLRAEDTAVYYCARAGEKAMDYWGQGTLVTVSSASTKGPSVFPLAPCSRSTSESTAALGCLVKDYFPEPVTVSWNSGALTSGVHTFPAVLQSSGLYSLSSVVTVPSSNFGTQTYTCNVDHKPSNTKVDKTVERKCCVECPPCPAPPVAGPSVFLFPPKPKDTLMISRTPEVTCVVVDVSHEDPEVQFNWYVDGVEVHNAKTKPREEQFNSTFRVVSVLTVVHQDWLNGKEYKCKVSNKGLPAPIEKTISKTKGQPREPQVYTLPPSREEMTKNQVSLTCLVKGFYPSDIAVEWESNGQPENNYKTTPPMLDSDGSFFLYSKLTVDKSRWQQGNVFSCSVMHEALHNHYTQKSLSLSPGK
light: EIVLTQSPATLSLSPGERATLSCRASQTINNNLHWYQQKPGQAPRLLIKYASQSISGIPARFSGSGSGTDFTLTISSLEPEDFAVYFCQQFSSWPLTFGGGTKVEIKRTVAAPSVFIFPPSDEQLKSGTASVVCLLNNFYPREAKVQWKVDNALQSGNSQESVTEQDSKDSTYSLSSTLTLSKADYEKHKVYACEVTHQGLSSPVTKSFNRGEC
notes: SIRPαV2D1 variant M1 linked to N-terminus of each heavy chain of HuCD40-C1H1-V2 (human IgG2)
Regarding B1, the Kd in assay [1] came out at 0.987 nM; in assay [2], 0.937 nM; in assay [3], 6.08 nM; in assay [4] it was 2.16 nM. For the same molecule, the koff turned out to be 0.000586 s⁻¹ in assay [1], 0.00164 s⁻¹ in assay [2], 0.000576 s⁻¹ in assay [3] and 0.00163 s⁻¹ in assay [4]. Besides, the kon in assay [1] was 594000 M⁻¹ s⁻¹; in assay [2], 1.75e+06 M⁻¹ s⁻¹; in assay [3], 94800 M⁻¹ s⁻¹; in assay [4], 753000 M⁻¹ s⁻¹. For the same molecule, the EC50 in assay [5] is 0.213 nM. The molecule further yielded an IC50 in assay [6] of 2.74 nM.

B2: BSI038×S-002 (bispecific antibody, human IgG2, kappa)
heavy: not shown
light: B1 light
notes: Wild-type SIRPαV2D1 linked to N-terminus of each heavy chain of HuCD40-C1H1-V2 (human IgG2)
On to B2, for which the IC50 in assay [7] was around 2.37 nM; in assay [6] it was 76.8 nM. In addition, the Kd in assay [1] is 6.31 nM; in assay [2] it was 0.729 nM. Also, the figures for the koff in assay [1] and in assay [2] were 0.00686 s⁻¹ and 0.00184 s⁻¹, respectively. In addition, the kon in assay [1] came to 1.09e+06 M⁻¹ s⁻¹; in assay [2], 2.53e+06 M⁻¹ s⁻¹. Besides, the EC50 in assay [8] amounted to 1.19 nM; in assay [5], 0.689 nM.

B3: BSI038×S-005 (bispecific antibody, human IgG2, kappa)
heavy: B1 heavy with K68R, F103V
light: B1 light
notes: SIRPαV2D1 variant M2 linked to N-terminus of each heavy chain of HuCD40-C1H1-V2 (human IgG2)
In the case of B3, the Kd stood at 1.15 nM in assay [1], 0.935 nM in assay [2], 5.39 nM in assay [3] and 2.2 nM in assay [4]. For the same molecule, the koff in assay [1] was 0.000598 s⁻¹; in assay [2] it was 0.00165 s⁻¹; in assay [3], 0.000495 s⁻¹; in assay [4], 0.00167 s⁻¹. Besides, the kon in assay [1] came out at 518000 M⁻¹ s⁻¹; in assay [2], 1.77e+06 M⁻¹ s⁻¹; in assay [3], 91800 M⁻¹ s⁻¹; in assay [4], 759000 M⁻¹ s⁻¹. The molecule also had an EC50 in assay [5] of 0.197 nM. Besides, the IC50 in assay [6] amounted to 2.5 nM.
